Laboratory results: FireProtDB (doi:10.1021/bi960052u)

Conditions: Equus caballus, pH 7, 10 °C, GdnHCl, Fluorescence, Sodium phosphate 0.1 M

Chain of Cytochrome c L95V, P00004 (P00004 whole entry L95V): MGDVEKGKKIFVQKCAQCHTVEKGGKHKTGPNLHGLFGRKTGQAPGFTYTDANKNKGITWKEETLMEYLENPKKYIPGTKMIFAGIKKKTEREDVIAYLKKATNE
Chain of Cytochrome c L95I, P00004 (P00004 whole entry L95I): as the sequence (P00004 whole entry L95V) above, with V95I counted along it
Chain of Cytochrome c L95A, P00004 (P00004 whole entry L95A): as the sequence (P00004 whole entry L95V) above, with V95A counted along it
Chain of Cytochrome c wild type, P00004 (P00004 whole entry): as the sequence (P00004 whole entry L95V) above, with V95L counted along it

In the case of Cytochrome c L95A, P00004, the “ddG of mutation (higher = less stable)” value (structure 1AKK) is reported as 3.5 kcal/mol, the denaturant m value (structure 1AKK) is reported as 3.7 kcal/mol/M and the “denaturant midpoint (higher = more stable)” value (“denaturant midpoint” for short) (structure 1AKK) is reported as 1.67 M. It also gave an unfolding free energy (structure 1AKK) of 6.2 kcal/mol.

With Cytochrome c L95I, P00004 the “ddG of mutation (higher = less stable)” value (structure 1AKK) was -0.2 kcal/mol, the denaturant m value (structure 1AKK) was 4 kcal/mol/M and the “denaturant midpoint” value (structure 1AKK) was 2.47 M. It also gave an unfolding free energy (structure 1AKK) of 9.9 kcal/mol.

With Cytochrome c L95V, P00004 the “ddG of mutation (higher = less stable)” value (structure 1AKK) was 0.8 kcal/mol, the denaturant m value (structure 1AKK) was 3.6 kcal/mol/M and the “denaturant midpoint” value (structure 1AKK) was 2.47 M. For the same substance, the unfolding free energy (structure 1AKK) was 8.9 kcal/mol.

For Cytochrome c wild type, P00004, the denaturant m value was 3.5 kcal/mol/M, the “denaturant midpoint” value was 2.77 M and the unfolding free energy was 9.7 kcal/mol.
